Measured values taken from the DeepSol protein solubility set.

Experiment: soluble on expression in E. coli; label from the status in PepcDB or PDB records

Row | Sequence | soluble on expression in E. coli
1 | MFVMEKVLFPFSAVVDEDDLKMALILNAIDQRIGGVLIMGPKGVAKSTIARSLTDLLPDIDVVKDCPFKCDPHDPSSMCDECIKKYRDGTIVSEKRKIPFVNMPVTATLDRVVGSLDIKRAIDEGLRALQPGLLAEANRGIIYIDEVNLLDDSVVDSILDSAASGINVVEREGVSVTHPARFILIGTMNPEEGDLRPQLKDRFGLSVTAVQPSDPEELIEISNRVEEFDRDPEAFRRKYEKIQNEIRNRIMRARSLLPSVVIDEDLKRFIAEVVIKLQAGNRAMITAVKASKAIAAFNGRDRVNIDDVKEALNLVLKHRVKDSAMIRGTIEKESRDLSTRSVEAGPHSGYEEGSESSGRRDMKAGNGKDEEKDVEVSAAFDEESNRSGRTGNADIFRILDQNRPGDHFDYRASLVNMIMNGRRRMKYEDLAFVSSRSRASIPVILAVDASRSMETMHRIALARGIARSFLHSAYRMRVKLSYITFYGTESHLMVEPTRNLDLIDREISRTVPQGKTPIPAALKMMYDISSRYRQRTVSIMITDGRANVPLGNDVTHDVREWSAKLGTRSDLFLISSTMGSERFMPSYNEDICRYSGGQLIEMDGNGHIALYSGYRRY | soluble
2 | MFYGGIDVAKYRHEICIVDESGNVILQIFVDNTRNGLDKLIHNLKRLEIEVSNVEFCLEATGHYWLSLYYHLTELGYKIHVINPIQSDALRNFYVRKTKTDRKDAHLLADIVRFGHISETKLASETVLKLQNLSRLRFEFVRQVGGLKNRVLGILDRIFPEYPQCFSNVFINTSRELLKSFTAPEDLAEADLSELTDFLNKHSRGRLGVDRAKQIQALAKGTFGINIALDAFTLELRLLVEQIEFIEEQISVIEEAIDQVMEEMRPSKDTAYRHVLETIPGIGPVLAASIIGEIGDINRFPNAKALVAYAGLDATVRSSGQFEGTRNRISKRGSPVLRHSIWLAAVSARRFNPEMKEFFEKKRSEGKHTLVATGAVARRMVHLIYSLWKDNRPFDPNYQWSPTNSR | not soluble
3 | MFYKEENFKKTEIGEIPEDWEIVELKDVCKKIKAGGTPKTSVEEYYKNGTIPFVKIEDITNSNKYLTNTKIKITEEGLNNSNAWIVPKNSVLFAMYGSIGETAINKIEVATNQAILGIIPKDNILESEFLYYILAKNKNYYSKLGMQTTQKNLNAQIVKSFKIPLPPLEEQKQIAKILTKIDEGIEIIEKSINKLERIKKGLMHKLLTKGIGHSRFKKSEIGEIPEDWEVFEIKDIFEVKTGTTPSTKKSEYWENGEINWITPLDLSRLNEKIYIGSSERKVTKIALEKCNLNLIPKGSIIISTRAPVGYVAVLTVESTFNQGCKGLFQKNNDSVNTEFYAYYLKFKKNLLENLSGGSTFKELSKSMLENFKIPLPPLEEQKQIAKILSSVDKSIELKKQKKEKLQRMKKKIMELLLTGKVRVKT | soluble
4 | MGANALDFYPEPLREEIERLNGRIYPAVNNGVYRAGFATRQDAYEEAFVQLFEELDYLEGLLGERRYLAGEYLTEADIRLFTTLVRFDAVYHGHFKCNLRRIEDYPNLSGWLRELYQRPGIGETVLEHHHHHH | not soluble
5 | MGASMTGGQQMGAPITAYAQQTRGLLGCIITSLTGRDKNQVEGEVQIVSTATQTFLATCINGVCWTVYHGAGTRTIASPKGPVIQMYTNVDQDLVGWPAPQGSRSLTPCTCGSSDLYLVTRHADVIPVRRRGDSRGSLLSPRPISYLKGSSGGPLLCPAGHAVGLFRAAVCTRGVAKAVDFIPVENLETTMRSGSHHHHHH | soluble
6 | MGATGVASQRKTIEESIERNKEKYIETSHDIHANPEIGNQEFYASRTLSLLLGSAGFQLQHNIAGHETGFIARKSSGKQGPAIAFLAEYDALPGLGHACGHNLIGTISVAAAIALSETLEEIGGEVVVFGTPAEEGGPNGSAKSSYVKAGLFKNIDAALMIHPSGKTATTSPSLAVDPLDFHFYGKTAHAAASPEEGINALDAVIQLYNSINALRQQLPSDVKIHGVITEGGKAPNIIPDYAAARFFIRAATRKRCAEVTEKVKNIAQGAALATDTKVKIHQFQNEIDELLVTKTYNDVVAEELELLGEDVNRKERFGIGSTDAGNVSQVVPTIHPYIKIGPDDLIAHTNEFREAARSELGDKALITSAKALANTAYRLITEEGLLEKVKEEFREAQRNQG | not soluble
7 | MGAYLNKPIIEKEKEEGSGNGLSYACTTMQGWRVNQEDAHNCVVDLHTDWHMFGVYDGHGGTEVSKFTSAKLPDFLKERKFWEADDVAECLQKAFVDFDDFIRAEESMKELKDIGDEGKPKKAGGEADSEDEADRIDTIEEASVPLAELLKRYGGAGVGKSLLSAFLAKGDVSDDSEDEDEDEEEAEEQDDTEEKKENEDASAEVVIENAEDKEEEEGSPKKKGQKRCQKSPIQSEAKKSKSETDAETAPSSSSGVDGVATEEEDEDDSDKEFVADEEEDDEDAEDEQSDEEMVDGSLAPLLLGSGGAEVPGEDSGTTACVCLVGKDKVIVANAGDSRAVLCRNGKAVDLSVDHKPEDEVETNRIHAAGGQIEDGRVNGGLNLSRAFGDHAYKKNQELGLKEQMITALPDVKIEALTPEDEFIVVACDGIWNSMESQQVVDFVRDLLAKGSSCAEVCDALCDACLADSTDGDGTGCDNMTVICTTFDRKSK | not soluble
8 | MGCDFAIAKDFLLFFLTKPISMKLSVIIPIYNEIQTIEKILKKITTVMPEIPKEIVMVDDGSKDGTREWLVDTFGDPEQHPVLANVNLAGKFQCFPLDQSAETNGDRQGNSFVMPKEWEVKVIFHRQNQGKGGALHTAFAAATGDVLIIQDADLEYDPEDWGPMWKLIDGGWADVVYGSRFYGNPHRVLYFHHYLGNKLITSLIDLVCNINLTDIEVCYKMFRREVLEDLRLTCNDFGFEVEFTMKVTRSPKRWRIYEVGVAYYGRTFAEGKKINWRDGVKALGYIAKFWLTNALEHHHHHH | not soluble
9 | MGDEYMDDDEDYGFEYEDDSGSEPDVDMENQYYTAKGLRSDGKLDEAIKSFEKVLELEGEKGEWGFKALKQMIKITFGQNRLEKMLEYYRQLLTYIKSAVTKNYSEKSINAILDYISTSRQMDLLQHFYETTLDALKDAKNERLWFKTNTKLGKLFFDLHEFTKLEKIVKQLKVSCKNEQGEEDQRKGTQLLEIYALEIQMYTEQKNNKALKWVYELATQAIHTKSAIPHPLILGTIRECGGKMHLRDGRFLDAHTDFFEAFKNYDESGSPRRTTCLKYLVLANMLIKSDINPFDSQEAKPFKNEPEIVAMTQMVQAYQDNDIQAFEQIMAAHQDSIMADPFIREHTEELMNNIRTQVLLRLIRPYTNVRISYLSQKLKVSQKEVIHLLVDAILDDGLEAKINEESGMIEMPKNKKKMMVTSLVVPNAGDQGTTKSDSKPGTSSEPSTTTSVTSSILQGPPATSSCHQELSMDGLRVWAERIDSIQSNIGTRIKF | not soluble
10 | MGDQPFIPPPQQTALTVNDHDEVTVWNAAPCPMLPRDQVYVRVEAVAINPSDTKMRGQFATPWAFLGTDYAGTVVAVGSDVTHIQVGDRVYGAQNEMCPRTPDQGAFSQYTVTRGRVWAKIPKGLSFEQAAALPAGISTAGLAMKLLGLPLPSPSADQPPTHSKPVYVLVYGGSTATATVTMQMLRLSGYIPIATCSPHNFDLAKSRGAEEVFDYRAPNLAQTIRTYTKNNLRYALDCITNVESTTFCFAAIGRAGGHYVSLNPFPEHAATRKMVTTDWTLGPTIFGEGSTWPAPYGRPGSEEERQFGEDLWRIAGQLVEDGRLVHHPLRVVQGGFDHIKQGMELVRKGELSGEKLVVRLEGPLEHHHHHH | soluble
11 | MGDSTFLDRMLLQLRSTCKYYSGYPKDLGPSRVLHFTSEREFVQLLHQGYPVVVAFTIRSNYTQHLDRMLEEAAAEFYPNIKFMRVECPKYPGFCITRQKNEYPFIEIFHSPQHAGNEGKVQDPNITRYSVKVVPYNYDMSPYGFREFFKRQGVRTSDPK | not soluble
12 | MGDTFIRHIALLGFEKRFIPSQHYVYMFLVKWQDLSEKVVYRKFTEIYEFHKMLKEMFPIEAGEIHTENRVIPHLPAPRWFDGQRAAESRQGTLTEYFNGLMGLPVKISRCPHLLDFFKVRPDDLKLPTDSQAKKPETYLVPKDGKNNVADITGPIILQTYRAIADYEKSSGTEMTVATGDVVDVVEKSESGWWFCQMKTKRGWVPASYLEPLDSPDEAEDPDPNYAGEPYVTIKAYAAVEEDEMSLSEGEAIEVIHKLLDGWWVVRKGDITGYFPSMYLQKAGEEITQAQRQIRGRGAPPRRSTIRNAQSIHQRSRKRLSQDTYRRNSVRFLQQRRRPGRPGPLSTDGTKDNPSTPRVKPQPAVPPRPSSDLILHRCTESTKRKLTSAV | soluble
